This is an account of results in patent US20210380649A1 (BIO TECHNE, published 2021).

For assay [1], the target named is T1, recombinant mouse (rm) Wnt3a biotinylated protein (mouse, UniProt P27467 19-352, biotinylated (sites not given)).
T1 construct: also called biotinylated mouse Wnt3a protein
The assay is described as follows: ELISA: in-solution binding with biotinylated mouse Wnt3a (100 ng/mL), capture on streptavidin plate, detection with mouse anti-HA antibody, FIG. 8. How it is done:
(§1) Purified recombinant mouse sFRP proteins were tested in ELISA binding assays with a biotinylated mouse Wnt3a protein. […] His tagged-mouse sFRP2 and His tagged-mouse sFRP3 were detected with a mouse anti-His antibody. HA tagged-mouse sFRP5 was detected with a mouse anti-HA antibody.
(§2) A 96-well tissue culture plate was blocked with 1% BSA in PBS and used as an in-solution binding plate. 120 μL of total volume containing 100 ng/mL recombinant mouse (rm) Wnt3a biotinylated protein and sFRPs (1:3 serial dilution) were incubated overnight at 4° C. in the binding plate. Then 100 μL of binding solution was transferred to streptavidin coated 96-well ELISA plate, incubating overnight at 4° C. followed by the HRP detection. The mouse sFRP1 was detected with a goat anti-mouse sFRP1 antibody, mouse sFRP2 and mouse sFRP3 were His-tagged and were detected with a mouse anti-His antibody, mouse sFRP4 was detected with a sheep anti-mouse sFRP4 antibody, and the HA-tagged mouse sFRP5 was detected with a mouse […]. […] secondary antibodies were used to detect the primary antibodies followed by colorimetric readouts.
Background: ELISA stands for enzyme-linked immunosorbent assay.

Assay [2] deals with T1, recombinant mouse (rm) Wnt3a …. Put plainly: ELISA: in-solution binding with biotinylated mouse Wnt3a (100 ng/mL), capture on streptavidin plate, detection with goat anti-sFRP1 antibody, FIG. 8. The method, then: as §1, §2
Assay [3] deals with T2, mouse Wnt1 (mouse, UniProt P04426 28-370).
T2 sequence (looked up): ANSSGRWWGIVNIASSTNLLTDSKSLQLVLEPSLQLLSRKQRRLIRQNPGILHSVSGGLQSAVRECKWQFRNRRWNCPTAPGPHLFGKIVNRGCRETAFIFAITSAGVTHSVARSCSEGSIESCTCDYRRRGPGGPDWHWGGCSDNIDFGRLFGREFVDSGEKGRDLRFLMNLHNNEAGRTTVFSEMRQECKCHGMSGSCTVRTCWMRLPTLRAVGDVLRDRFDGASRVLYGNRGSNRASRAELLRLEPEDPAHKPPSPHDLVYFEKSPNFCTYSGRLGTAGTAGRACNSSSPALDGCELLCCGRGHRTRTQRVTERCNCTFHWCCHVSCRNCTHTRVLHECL
The assay is described as follows: cell-based or functional assay.

Assay [4] deals with T2, mouse Wnt1. The assay is described as follows: SDS-PAGE with Coomassie Blue of the gel-filtration purified complex, densitometry, FIG. 4F. An excerpt:
FIG. 4A. Conditioned media from CHO cells co-expressing msFRP1 and mWnt-1 were loaded onto SP Sepharose column, and bound proteins were eluted with a linear gradient of high salt buffer. The distinct late elution peak was the position that sFRP was usually eluted. FIG. 4B. Fractions collected from SP elution were loaded onto 15 percent (%) SDS-PAGE and stained with silver. The 37 kDa bands represent sFRP1. FIG. 4C. The same fractions of FIG. 4B were subjected to Western blot probed with antibody against mWnt-1. mWnt-1 was detected as a ˜52 kDa band that is present in the same fractions where sFRP1 was detected. FIG. 4D. Pool from a SP Sepharose column was loaded and eluted from a gel filtration (Superdex 200) column. The earlier-eluted peak contained the sFRP1/Wnt-1 complex, while the later-eluted peak contained the free sFRP. FIG. 4E. Fractions collected from gel filtration elution were loaded onto a 15% SDS-PAGE gel and stained with Coomassie blue. The lower band (37 kDa) represents sFRP1 and the upper band (52 kDa) represents Wnt-1. FIG. 4F. sFRP1/Wnt-1 complex purified from a gel filtration column was loaded onto a 15% SDS-PAGE gel and stained with Coomassie blue. Two bands, at 37 kDa and 52 kDa, were observed, with a roughly 1:1 molar ratio.

The target in assay [5] is T1, recombinant mouse (rm) Wnt3a …. Put plainly: ELISA: in-solution binding with biotinylated mouse Wnt3a (100 ng/mL), capture on streptavidin plate, detection with mouse anti-His antibody, FIG. 8. How it is done:
as §1, §2

T1 sequence (P27467 19-352 limits assumed): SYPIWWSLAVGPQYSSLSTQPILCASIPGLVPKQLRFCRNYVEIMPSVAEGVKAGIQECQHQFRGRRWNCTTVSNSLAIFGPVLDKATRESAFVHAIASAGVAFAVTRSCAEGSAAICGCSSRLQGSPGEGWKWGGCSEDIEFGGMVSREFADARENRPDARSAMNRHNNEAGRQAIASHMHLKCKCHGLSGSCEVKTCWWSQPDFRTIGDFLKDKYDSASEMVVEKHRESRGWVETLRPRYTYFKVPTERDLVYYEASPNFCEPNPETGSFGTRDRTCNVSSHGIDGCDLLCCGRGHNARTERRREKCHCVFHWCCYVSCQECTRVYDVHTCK

B1: HA tagged-mouse sFRP5 (other, UniProt Q9WU66 22-314, looked up)
chain: APTRGQEYDYYGWQAEPLHGRSYSKPPQCLDIPADLPLCHTVGYKRMRLPNLLEHESLAEVKQQASSWLPLLAKRCHSDTQVFLCSLFAPVCLDRPIYPCRSLCEAARAGCAPLMEAYGFPWPEMLHCHKFPLDNDLCIAVQFGHLPATAPPVTKICAQCEMEHSADGLMEQMCSSDFVVKMRIKEIKIDNGDRKLIGAQKKKKLLKAGPLKRKDTKKLVLHMKNGASCPCPQLDNLTGSFLVMGRKVEGQLLLTAVYRWDKKNKEMKFAVKFMFSYPCSLYYPFFYGAAEPH
notes: not shown: HA tag
On to B1, for which the binding result in assay [1] is recorded as “binds”.

B2: mouse sFRP1 (other, UniProt Q8C4U3 32-314, looked up)
chain: SEYDYVSFQSDIGSYQSGRFYTKPPQCVDIPVDLRLCHNVGYKKMVLPNLLEHETMAEVKQQASSWVPLLNKNCHMGTQVFLCSLFAPVCLDRPIYPCRWLCEAVRDSCEPVMQFFGFYWPEMLKCDKFPEGDVCIAMTPPNTTEASKPQGTTVCPPCDNELKSEAIIEHLCASEFALRMKIKEVKKENGDKKIVPKKKKPLKLGPIKKKELKRLVLFLKNGADCPCHQLDNLSHNFLIMGRKVKSQYLLTAIHKWDKKNKEFKNFMKRMKNHECPTFQSVFK
notes: Secreted protein; also called msFRP1; msFRP-1
On to B2, for which the binding result in assay [2] is recorded as “binds”. Also, the “fold induction above background, HEK293 TCF9-SEAP hFz4/hLRP5 Wnt Reporter assay, conditioned media of CHO cells co-expressing mWnt1 and msFRP1” value in the assay with mouse Wnt1 [3] amounted to 22 fold. In the assay with mouse Wnt1 [4], the “molar ratio of the two bands in the purified complex” value is ~1 molar ratio (sFRP1:Wnt-1).

B3: mouse sFRP1-His (other, UniProt Q8C4U3 32-314, looked up, not shown: small tags and cut ends)
chain: B2 chain
Take B3: the “fold induction above background, HEK293 TCF9-SEAP hFz4/hLRP5 Wnt Reporter assay, conditioned media of CHO cells co-expressing mWnt1 and msFRP1-His” value with mouse Wnt1 [3] was 17 fold.

B4: His tagged-mouse sFRP2 (other, UniProt P97299 25-295, looked up)
chain: LFLFGQPDFSYKRSNCKPIPANLQLCHGIEYQNMRLPNLLGHETMKEVLEQAGAWIPLVMKQCHPDTKKFLCSLFAPVCLDDLDETIQPCHSLCVQVKDRCAPVMSAFGFPWPDMLECDRFPQDNDLCIPLASSDHLLPATEEAPKVCEACKTKNEDDNDIMETLCKNDFALKIKVKEITYINRDTKIILETKSKTIYKLNGVSERDLKKSVLWLKDSLQCTCEEMNDINAPYLVMGQKQGGELVITSVKRWQKGQREFKRISRSIRKLQC
notes: also called msFRP2; not shown: His tag
With B4, the binding result in assay [5] is recorded as “binds”.
